Test results as given in patent US7485710B2, “Nucleic acids coding for adhesion factor of group B streptococcus, adhesion factors of group B streptococcus and further uses thereof” (priority 2002, dated 2009).

Columns and labels:
human fibrinogen [1] = biological target: T1, human fibrinogen (Homo sapiens, UniProt P02671+P02675+P02679); assay: Spot membrane analysis of fibrinogen binding by synthetic peptides; conditions: peptides derived from FbsA repeat GNVLERRQRDAENRSQ
T1 construct: purchased Sigma-Aldrich
T1 sequence (P02675 31-491): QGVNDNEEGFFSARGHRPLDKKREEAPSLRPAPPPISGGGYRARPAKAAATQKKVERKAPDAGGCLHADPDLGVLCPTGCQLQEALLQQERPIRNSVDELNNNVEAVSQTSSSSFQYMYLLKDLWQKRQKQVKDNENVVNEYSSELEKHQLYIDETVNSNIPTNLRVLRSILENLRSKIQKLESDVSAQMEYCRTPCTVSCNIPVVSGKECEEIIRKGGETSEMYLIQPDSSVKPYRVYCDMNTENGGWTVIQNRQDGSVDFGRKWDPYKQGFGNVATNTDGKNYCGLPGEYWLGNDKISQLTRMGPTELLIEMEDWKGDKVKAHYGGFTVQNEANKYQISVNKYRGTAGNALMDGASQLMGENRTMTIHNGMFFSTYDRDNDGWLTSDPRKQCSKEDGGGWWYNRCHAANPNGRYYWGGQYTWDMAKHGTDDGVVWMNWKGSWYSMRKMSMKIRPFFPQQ
T1 sequence (P02679 27-433): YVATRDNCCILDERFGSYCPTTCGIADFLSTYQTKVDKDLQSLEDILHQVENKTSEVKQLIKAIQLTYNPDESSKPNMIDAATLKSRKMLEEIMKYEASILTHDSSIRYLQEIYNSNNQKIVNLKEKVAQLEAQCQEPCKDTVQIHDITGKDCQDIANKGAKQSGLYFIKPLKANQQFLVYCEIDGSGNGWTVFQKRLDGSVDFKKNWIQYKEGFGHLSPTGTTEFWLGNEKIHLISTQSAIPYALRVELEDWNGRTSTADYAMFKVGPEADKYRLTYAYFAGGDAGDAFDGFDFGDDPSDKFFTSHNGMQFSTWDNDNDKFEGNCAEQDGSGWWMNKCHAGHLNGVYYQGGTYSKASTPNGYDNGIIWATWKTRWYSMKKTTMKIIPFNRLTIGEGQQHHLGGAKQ
T1 sequence (P02671 20-629): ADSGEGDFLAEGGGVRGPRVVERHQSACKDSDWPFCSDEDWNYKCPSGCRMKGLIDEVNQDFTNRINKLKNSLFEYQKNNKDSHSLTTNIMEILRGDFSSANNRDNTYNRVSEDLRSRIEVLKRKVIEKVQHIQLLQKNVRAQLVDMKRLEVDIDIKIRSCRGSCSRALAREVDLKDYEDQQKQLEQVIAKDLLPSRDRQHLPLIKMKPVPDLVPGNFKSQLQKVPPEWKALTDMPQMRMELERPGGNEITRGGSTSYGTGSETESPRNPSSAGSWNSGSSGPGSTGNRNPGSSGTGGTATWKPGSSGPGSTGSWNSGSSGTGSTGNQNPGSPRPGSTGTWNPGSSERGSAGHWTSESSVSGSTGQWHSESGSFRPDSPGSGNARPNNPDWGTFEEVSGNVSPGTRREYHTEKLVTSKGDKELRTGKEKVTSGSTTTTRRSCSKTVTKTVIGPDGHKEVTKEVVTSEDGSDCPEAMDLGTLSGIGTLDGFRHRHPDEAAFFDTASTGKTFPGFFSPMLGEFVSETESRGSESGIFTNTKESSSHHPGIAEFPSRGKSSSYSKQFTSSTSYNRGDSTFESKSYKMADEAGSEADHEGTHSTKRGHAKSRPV
Description: Fibrinogen binding was tested with peptides carrying the FbsA repeat motif ‘GNVLERRQRDAENRSQ’ (SEQ ID 113) and with peptides containing the scrambled sequence ‘GLSQNRDVRENQRARE’. (SEQ ID 205) Synthetic peptides, which differed from the repeat motif in that single amino acids had been replaced by alanine, were probed for fibrinogen binding. Beside the spot membrane, the sequence of each synthetic peptide is listed. Bold and underlined letters indicate amino acid substitutions within the repeat motif.
Synthetic peptides were tested for fibrinogen binding, in which each of the amino acids of the fibrinogen-binding repeat was replaced by each of the 20 amino acids. The vertical letters, printed in bold, represent the FbsA-derived fibrinogen binding sequence ‘GNVLERRQRDAENRSQ’ (SEQ ID NO: 113). The horizontal letters represent those amino acids that were introduced in the synthetic peptides instead of the original amino acid in the respective position.
In Western blot experiments proteins were separated by SDS-PAGE and electroblotted onto nitrocellulose. […] For spot membrane experiments peptides of 16 amino acids were synthesized and equal amounts of the peptides were directly spotted onto cellulose paper as described previously (Frank and Overwin, 1996). Blocking was performed in membrane blocking solution (MBS) that consisted of 20 ml casein based blocking buffer (Genosys Biotechnologies, Cambridge, England), 80 ml Tris-buffered saline (TBS), 0.05% tween 20, and 5 g sucrose. Probing for fibrinogen-binding was performed as described below.
Membranes that had been blocked overnight were incubated for 1 h with 2 μg/ml of human fibrinogen. For Western and colony blot experiments, fibrinogen and antibodies were diluted in PBS while for spot membrane analysis they were diluted in MBS. Following three washes with PBS, the membrane was incubated with anti-fibrinogen antibodies (1:1000 in PBS or MBS) for 1 h. This incubation was followed by three washes with PBS, containing 0.05% tween 20 (PBST) and two washes with PBS. Subsequently, the membrane was incubated for 1 h with peroxidase-labelled anti-rabbit IgG (1:1000 in PBS or MBS). After three washes with PBST and two washes with PBS, bound fibrinogen was detected by chemiluminescence using the ECL-kit (Amersham/Pharmacia). In control experiments, no cross-reactivity of the used antibodies with the immobilized proteins and peptides was detected.

A549 cells = assay: Epithelial cell adherence and internalization assay of GBS 6313 in presence of proteins; format: cell-based, human; conditions: fibrinogen 0.1 μg/ml to 1.0 μg/ml; fibronectin 10 μg/ml; data not shown
Description: The adherence of GBS 6313 to A549 cells (A) and its internalization into these cells (B) was arbitrarily set to 100% and the results obtained in the presence of the different fusion proteins was related to these values. Each experiment was performed at least three times in triplicate.
Adherence of GBS to epithelial cells and internalization into epithelial cells was assayed essentially as described previously (Caparon et al., 1991; Rubens et al. 1992). Briefly, A549 cells were transferred to 24-well tissue culture plates at approximately 4×10^5 cells per well and cultivated overnight in RPMI (Gibco BRL) tissue culture medium, supplemented with 10% of fetal calf serum. After replacement of the medium with 1 ml of fresh medium, the cells were infected with 5×10^6 streptococci per well and incubated at 37° C. for 2 h. The non-adherent bacteria were removed by washing three times with PBS. In adherence assays, the epithelial cells were subsequently detached from the well by the addition of trypsin/EDTA and lysed by adding 300 μl of distilled water. Adherent bacteria were quantitated by plating serial dilutions of the lysate onto THY agar plates. For internalization assays the epithelial cells were incubated after 2 h of infection for another 2 h in tissue culture medium supplemented with penicilling G (10 U) and streptomycin (0.01 mg) to kill extracellular bacteria. After three washes with PBS, the epithelial cells were detached by the addition of trypsin/EDTA and lysed in 300 μl of distilled water. The amount of intracellular bacteria was quantified by plating serial dilutions of the lysate onto THY agar plates. Each experiment was repeated at least three times in triplicate. […]
Adherence of S. agalactiae to A549 and HEL299 cells and internalization into these cells was assayed essentially as described in Example 1 for A549 cells. In some experiments, A549 cells were preincubated with different amounts of FbsA protein or FbsA-derived peptides in RPMI medium for 30 min with three subsequent washes with PBS.

GBS 6313 = assay: Competitive inhibition of 125I-labelled fibrinogen binding to GBS; parameters: species or system Streptococcus agalactiae; conditions: for inhibition of fibrinogen binding to GBS: 160 μM synthetic peptide, radiolabelled fibrinogen
Description: FbsA-9 differs from FbsA-19 in that it contains only 9 repeats in its repeat domain. The binding assay was performed with ^125I-labelled fibrinogen in the presence of different concentrations of each fusion protein. Each experiment was performed at least in triplicate.
Each experiment was performed at least in triplicate.
Purified human fibrinogen was radiolabelled with ^125I, using the chloramin T method (Hunter and Greenwood, 1962). Binding of labelled fibrinogen to GBS was performed essentially as described by Chhatwal et al. (Chhatwal, Muller, and Blobel, 1983). Briefly, overnight cultures of GBS were pelleted by centrifugation, washed twice with phosphate-buffered saline supplemented with 0.02% Tween 20 (PBST) and adjusted photometrically to a transmission of 10% at 600 nm. A total of 0.2 ml of the bacterial suspension was added to 20 μl of ^125I-labelled fibrinogen containing 23 ng of fibrinogen. After incubation for 1 h at room temperature, the streptococci were sedimented by centrifugation and washed with 1 ml of PBST. The radioactivity of the pellet was finally measured in a gamma counter (Packard Instruments). The amount of bacterial-bound fibrinogen was calculated as the percentage of total radiolabelled fibrinogen added to the bacteria. In inhibition experiments, the binding of 23 ng of radiolabelled fibrinogen to 0.2 ml of GBS (T=10%) was determined in the presence of various amounts of FbsA fusion proteins, Bsp fusion protein or synthetic peptides. Each experiment was repeated at least three times in triplicate.

human fibrinogen [2] = biological target: T1, human fibrinogen; assay: Western blot of fusion proteins for fibrinogen binding; conditions: His-tagged fusion proteins separated by SDS-PAGE, blotted, probed with human fibrinogen
Source text: The fibrinogen binding activity of the three proteins encoded by different constructs are indicated below the schematic FbsA drawing.
The fusion proteins were size-separated by SDS-PAGE, transferred onto a nitrocellulose membrane and tested for fibrinogen binding by Western blotting. Bound fibrinogen was detected with rabbit anti-fibrinogen antibodies, followed by peroxidase-labelled goat anti-rabbit antibodies, and visualized by chemiluminescence. PabC and Gbs0851: full-length fusion proteins; PabC-N: N-terminal 388 amino acids of PabC; PabC-C: C-terminal 222 amino acids of PabC. (C) Identification of the FbsA and PabC-binding sites within human fibrinogen by Western blot analysis. […] Bound fusion proteins were detected with mouse anti-HisTag antibodies, followed by peroxidase-conjugated goat anti-mouse IgG fab fragments and visualized by chemiluminescence. […]
Membranes that had been blocked overnight were incubated for 1 h with 2 μg/ml of human fibrinogen. […] After three washes with PBST and two washes with PBS, bound fibrinogen was detected by chemiluminescence using the ECL-kit (Amersham/Pharmacia). In control experiments, no cross-reactivity of the used antibodies with the immobilized proteins and peptides was detected.

Question: How did the “fibrinogen binding of synthetic 16-mer peptides on spot membrane” value (“fibrinogen binding … on spot membrane” for short) (human fibrinogen [1]) turn out when “R^14K: FbsA repeat peptide with R14K substitution (GNVLERRQRDAENKSQ; listed as Streptococcus agalactiae)” was run?
Answer: Its value is “retained fibrinogen binding”.

Question: What does the source list for fibronectin [reference compound]?
Answer: bacterial adherence to A549 cells after pre-incubation of S. agalactiae 6313 with protein (A549 cells): did not exert an inhibitory effect; bacterial invasion of A549 cells after pre-incubation of S. agalactiae 6313 with protein (A549 cells): did not exert an inhibitory effect

Question: With “GLSQNRDVRENQRARE (listed as Streptococcus agalactiae) [randomised peptide, reference compound]” as the molecule, how does the “fibrinogen binding … on spot membrane” value (human fibrinogen [1]) read?
Answer: Its value is “no binding of fibrinogen”.

Question: With “GNVLERRQRDAENRSQ (listed as Streptococcus agalactiae) [pep_FbsA]” as the molecule, how does the “inhibition of fibrinogen binding to GBS” value (GBS 6313) read?
Answer: The value was 80%.

Question: And the “fibrinogen binding … on spot membrane” value (human fibrinogen [1])?
Answer: Its value is “strong interaction”.

Question: What does the source list for “GNVLEARQRDAENRSQ [pep_R6A, synthetic FbsA repeat unit peptide carrying an R6A substitution]”?
Answer: inhibition of fibrinogen binding to GBS (GBS 6313): 20%; fibrinogen binding of synthetic 16-mer peptides on spot membrane (human fibrinogen [1]): significantly reduced binding to fibrinogen; fibrinogen binding of synthetic 16-mer peptides on spot membrane (human fibrinogen [1]; listed as R6A): retained little binding activity

B1: FbsA-N: fusion protein with the 19 N-terminal repeats of FbsA-19, truncated at its C-terminus (protein)
chain: MDSVGNQSQGNVLERRQRDAENRSQGNVLERRQRDVENKSQGNVLERRQRDAENKSQGNVLERRQRDAENRSQGNVLERRQRDAENRSQGNVLERRQRDAENRSQGNVLERRQRDAENRSQGNVLERRQRDAENRSQGNVLERRQRDVENKSQGNVLERRQRDAENKSQGNVLERRQRDAENRSQGNVLERRQRDAENRSQGNVLERRQRDAENRSQGNVLERRQRDAENRSQGNVLERRQRDAENRSQGNVLERRQRDAENRSQGNVLERRQRDAENRSQGNVLERRQRDAENRSQGNVLERRQRDAENKSQVGQLIG
modifications: left off: small tags and cut ends
notes: fusion protein with the 19 N-terminal repeats of FbsA-19, truncated at its C-terminus
Question: For B1, which “fibrinogen binding in Western blot” value (human fibrinogen [2]) is on record?
Answer: The value was “fibrinogen binding was observed”.

B2: FbsA-9: derivative of FbsA-19 fusion protein with only 9 repeats in its repeat domain (protein)
chain: MDSVGNQSQGNVLERRQRDAENRSQGNVLERRQRDVENKSQGNVLERRQRDAENKSQGNVLERRQRDAENRSQGNVLERRQRDAENRSQGNVLERRQRDAENRSQGNVLERRQRDAENRSQGNVLERRQRDAENRSQGNVLERRQRDAENKSQVGQLIGKNPLLSKSIISRENNHSSQGDSNKQSFSKKVSQVTNVANRPMLTNNSRTISVINKLPKTGDDQNV
modifications: left off: small tags and cut ends
notes: derivative of FbsA-19 fusion protein with only 9 repeats in its repeat domain
Question: B2 was tested. Which “inhibition of binding of 125I-labelled fibrinogen to GBS 6313” value (GBS 6313; increasing concentrations of purified fusion protein) did it give?
Answer: The value was “significantly higher concentration of FbsA-9 had to be used to obtain a comparable inhibition”.
